According to patent publication US20230340142A1 (SUZHOU NEOLOGICS BIOSCIENCE, published 2023):

Molecular target: T1, human PD-L1 (human, UniProt Q9NZQ7 19-238, limits assumed)
T1 construct: also called hPD-L1
Experiment: Octet-96 BLI; antigen not named, taken as human PD-L1

T1 sequence (Q9NZQ7 19-238 limits assumed): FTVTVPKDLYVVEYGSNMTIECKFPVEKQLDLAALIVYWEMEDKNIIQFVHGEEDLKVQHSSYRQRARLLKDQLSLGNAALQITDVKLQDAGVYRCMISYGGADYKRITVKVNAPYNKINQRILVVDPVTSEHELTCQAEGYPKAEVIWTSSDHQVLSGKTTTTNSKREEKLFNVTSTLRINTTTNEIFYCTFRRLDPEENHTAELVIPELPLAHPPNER

B1: BhVH2/BhVL1 (antibody, V domains shown)
VH: QGQLVQSGAEVKKPGASVKVSCKTSGFTFSSSYISWVRQAPGQGLEWMGWIYAGTGGTSYNQKFTGRVTMTVDTSTSTAYMELRSLRSDDTAVYYCARHEGKYWYFDVWGQGTTVTVSS
VL: DIQMTQSPSSLSASVGDRVTITCSASSSVSYVHWYQQKPGKAPKPWIYDTSNLASGFPSRFSGSGSGTDYTLTISSLQPEDFATYYCHQRSSYPWTFGGGTKVEIK
notes: Humanized Clone B; VH and VL cloned into vectors carrying constant regions (CH1-FC/CL), expressed in 293F cells; also called humanized Clone B, Bh VH2 + Bh VL1
Kd: 1.13 nM

B2: BhVH2/BhVL8 (antibody, V domains shown)
VH: QGQLVQSGAEVKKPGASVKVSCKTSGFTFSSSYISWVRQAPGQGLEWMGWIYAGTGGTSYNQKFTGRVTMTVDTSTSTAYMELRSLRSDDTAVYYCARHEGKYWYFDVWGQGTTVTVSS
VL: EIVMTQSPATLSVSPGERATLSCSASSSVSYVHWYQQKPGQAPRPWIYDTSNLASGFPARFSGSGSGTEYTLTISSLQSEDAAVYYCHQRSSYPWTFGGGTKVEIK
notes: Humanized Clone B; constant regions (CH1-FC/CL) from the vector, expressed in 293F cells; also called humanized Clone B, Bh VH2 + Bh VL8
Kd: 1.18 nM

B3: BhVH5/BhVL8 (antibody, V domains shown)
VH: QGQLVQSGAEVKKPGSSVKVSCKTSGFTFSSSYISWVRQAPGQGLEWMGWIYAGTGGTSYNQKFTGRVTITVDTSTSTAYMELSSLRSEDTAVYYCARHEGKYWYFDVWGQGTTVTVSS
VL: EIVMTQSPATLSVSPGERATLSCSASSSVSYVHWYQQKPGQAPRPWIYDTSNLASGFPARFSGSGSGTEYTLTISSLQSEDAAVYYCHQRSSYPWTFGGGTKVEIK
notes: Humanized Clone B; constant regions (CH1-FC/CL) from the vector, expressed in 293F cells; also called humanized Clone B, Bh VH5 + Bh VL8
Kd: 0.619 nM

B4: BhVH2/BhVL7 (antibody, V domains shown)
VH: QGQLVQSGAEVKKPGASVKVSCKTSGFTFSSSYISWVRQAPGQGLEWMGWIYAGTGGTSYNQKFTGRVTMTVDTSTSTAYMELRSLRSDDTAVYYCARHEGKYWYFDVWGQGTTVTVSS
VL: EIVMTQSPATLSVSPGERATLSCSASSSVSYVHWYQQKPGQAPRLLIYDTSNLASGIPARFSGSGSGTEFTLTISSLQSEDFAVYYCHQRSSYPWTFGGGTKVEIK
notes: Humanized Clone B; constant regions (CH1-FC/CL) from the vector, expressed in 293F cells; also called humanized Clone B, Bh VH2 + Bh VL7
Kd: 0.942 nM

B5: BhVH5/BhVL7 (antibody, V domains shown)
VH: QGQLVQSGAEVKKPGSSVKVSCKTSGFTFSSSYISWVRQAPGQGLEWMGWIYAGTGGTSYNQKFTGRVTITVDTSTSTAYMELSSLRSEDTAVYYCARHEGKYWYFDVWGQGTTVTVSS
VL: EIVMTQSPATLSVSPGERATLSCSASSSVSYVHWYQQKPGQAPRLLIYDTSNLASGIPARFSGSGSGTEFTLTISSLQSEDFAVYYCHQRSSYPWTFGGGTKVEIK
notes: Humanized Clone B; constant regions (CH1-FC/CL) from the vector, expressed in 293F cells; also called humanized Clone B, Bh VH5 + Bh VL7
Kd: 0.4 nM

B6: BhVH3/BhVL3 (antibody, V domains shown)
VH: QVQLVQSGAEVKKPGASVKVSCKTSGFTFSSSYISWVRQAPGQGLEWMGWIYAGTGGTSYNQKFTGRVTMTVDTSTSTAYMELRSLRSDDTAVYYCARHEGKYWYFDVWGQGTTVTVSS
VL: DIQMTQSPSTLSASVGDRVTITCSASSSVSYVHWYQQKPGKAPKLLIYDTSNLASGVPSRFSGSGSGTEFTLTISSLQPDDFATYYCHQRSSYPWTFGGGTKVEIK
notes: Humanized Clone B; constant regions (CH1-FC/CL) from the vector, expressed in 293F cells; also called humanized Clone B, Bh VH3 + Bh VL3
Kd: 1.29 nM

B7: ChVH3/ChVL3 (antibody, V domains shown)
VH: QVQLVQSGAEVKKPGASVKVSCKASGFNIKDTYMHWVRQAPGQGLEWIGRIDPANGNTKYDPKFQGRVTITTDTSANTAYMELSSLRSEDTAVYYCARGLGRWFAYWGQGTTVTVSS
VL: DIQMTQSPSSLSASVGDRVTITCQASQDVSNAVAWYQQKPGKAPKLLIYSASNLYTGVPSRFSGSGSGTDFTFTISSLQPEDIATYYCQQHDSTPLTFGQGTKLELK
notes: Humanized Clone C; constant regions (CH1-FC/CL) from the vector, expressed in 293F cells; also called humanized Clone C, Ch VH3 + Ch VL3
Kd: 0.242 nM

B8: ChVH5/ChVL1 (antibody, V domains shown)
VH: QVQLVQSGAEVKKPGASVKVSCKASGFNIKDTYMHWVRQAPGQRLEWIGRIDPANGNTKYSQKFQGRVTITRDTSASTAYMELSSLRSEDTAVYYCARGLGRWFAYWGQGTTVTVSS
VL: DIQMTQSPSSLSASVGDRVTITCKASQDVSNAVAWYQQKPGKAPKLLIYSASNRYTGVPDRFSGSGSGTDFTFTISSLQPEDIATYYCQQHDSTPLTFGQGTKLELK
notes: Humanized Clone C; constant regions (CH1-FC/CL) from the vector, expressed in 293F cells; also called humanized Clone C, Ch VH5 + Ch VL1
Kd: 1.17 nM

B9: ChVH2/ChVL2 (antibody, V domains shown)
VH: QVQLVQSGAEVKKPGASVKVSCKASGFNIKDTYMHWVRQAPGQGLEWIGRIDPANGNTKYDPKFQGRATITTDTSTNTAYLELSSLRSEDTAVYYCARGLGRWFAYWGQGTTVTVSS
VL: DIQMTQSPSSLSASVGDRVTITCKASQDVSNAVAWYQQKPGKAPKLLIYSASNRYTGVPSRFSGSGSGTDFTFTISSLQPEDIATYYCQQHDSTPLTFGQGTKLELK
notes: Humanized Clone C; constant regions (CH1-FC/CL) from the vector, expressed in 293F cells; also called humanized Clone C, Ch VH2 + Ch VL2
Kd: 0.201 nM

B10: ChVH1/ChVL1 (antibody, V domains shown)
VH: QVQLVQSGAEVKKPGASVKLSCTASGFNIKDTYMHWVKQRPGQGLEWIGRIDPANGNTKYDPKFQGKATITTDTSTNTAYLELSSLRSEDTAVYYCARGLGRWFAYWGQGTTVTVSS
VL: DIQMTQSPSSLSASVGDRVTITCKASQDVSNAVAWYQQKPGKAPKLLIYSASNRYTGVPDRFSGSGSGTDFTFTISSLQPEDIATYYCQQHDSTPLTFGQGTKLELK
notes: Humanized Clone C; constant regions (CH1-FC/CL) from the vector, expressed in 293F cells; also called humanized Clone C, Ch VH1 + Ch VL1
Kd: 0.255 nM

B11: ChVH2/ChVL3 (antibody, V domains shown)
VH: QVQLVQSGAEVKKPGASVKVSCKASGFNIKDTYMHWVRQAPGQGLEWIGRIDPANGNTKYDPKFQGRATITTDTSTNTAYLELSSLRSEDTAVYYCARGLGRWFAYWGQGTTVTVSS
VL: DIQMTQSPSSLSASVGDRVTITCQASQDVSNAVAWYQQKPGKAPKLLIYSASNLYTGVPSRFSGSGSGTDFTFTISSLQPEDIATYYCQQHDSTPLTFGQGTKLELK
notes: Humanized Clone C; constant regions (CH1-FC/CL) from the vector, expressed in 293F cells; also called humanized Clone C, Ch VH2 + Ch VL3
Kd: 0.329 nM

B12: ChVH3/ChVL1 (antibody, V domains shown)
VH: QVQLVQSGAEVKKPGASVKVSCKASGFNIKDTYMHWVRQAPGQGLEWIGRIDPANGNTKYDPKFQGRVTITTDTSANTAYMELSSLRSEDTAVYYCARGLGRWFAYWGQGTTVTVSS
VL: DIQMTQSPSSLSASVGDRVTITCKASQDVSNAVAWYQQKPGKAPKLLIYSASNRYTGVPDRFSGSGSGTDFTFTISSLQPEDIATYYCQQHDSTPLTFGQGTKLELK
notes: Humanized Clone C; constant regions (CH1-FC/CL) from the vector, expressed in 293F cells; also called humanized Clone C, Ch VH3 + Ch VL1
Kd: 0.16 nM

B13: ChVH4/ChVL3 (antibody, V domains shown)
VH: QVQLVQSGAEVKKPGASVKVSCKASGFNIKDTYMHWVRQAPGQGLEWIGRIDPANGNTKYDPKFQGRVTITTDTSASTAYLELSSLRSEDTAVYYCARGLGRWFAYWGQGTTVTVSS
VL: DIQMTQSPSSLSASVGDRVTITCQASQDVSNAVAWYQQKPGKAPKLLIYSASNLYTGVPSRFSGSGSGTDFTFTISSLQPEDIATYYCQQHDSTPLTFGQGTKLELK
notes: Humanized Clone C; constant regions (CH1-FC/CL) from the vector, expressed in 293F cells; also called humanized Clone C, Ch VH4 + Ch VL3
Kd: 0.177 nM

B14: DhVH2/DhVL2 (antibody, V domains shown)
VH: QVQLVQSGAEVKKPGASVKVSCKASGYSFTGYTMNWVKQAHGQGLEWMGLIIPYNGGISYNQKFKDRVTMTVDTSISTAYMELSRLRSDDTAVYYCASLITTAPRDSMDYWGQGTLVTVSS
VL: DIQMTQSPSSLSASVGDRVTITCRASQDISNYLNWYQQKPGKAPKLLIYYTSKLHSGVPSRFSGSGSGTDFTLTISSLQPEDIATYYCQQGDALPWTFGGGTKVEIK
notes: Humanized Clone D; constant regions from the vector, 293F cells; also called humanized Clone D, Dh VH2 + Dh VL2
Kd: 11.8 nM

B15: DhVH3/DhVL2 (antibody, V domains shown)
VH: QVQLVQSGAEVKKPGASVKVSCKASGYSFTGYTMNWVRQAPGQGLEWMGLIIPYNGGISYNQKFKDRVTMTVDTSISTAYMELSRLRSDDTAVYYCASLITTAPRDSMDYWGQGTLVTVSS
VL: DIQMTQSPSSLSASVGDRVTITCRASQDISNYLNWYQQKPGKAPKLLIYYTSKLHSGVPSRFSGSGSGTDFTLTISSLQPEDIATYYCQQGDALPWTFGGGTKVEIK
notes: Humanized Clone D; constant regions from the vector, 293F cells; also called humanized Clone D, Dh VH3 + Dh VL2
Kd: 1.67 nM

B16: DhVH1/DhVL2 (antibody, V domains shown)
VH: QVQLVQSGAEVKKPGASVKVSCKASGYSFTGYTMNWVKQSHGQGLEWIGLIIPYNGGISYNQKFKDRATLTVDTSSSTAYMELSRLRSDDTAVYYCASLITTAPRDSMDYWGQGTLVTVSS
VL: DIQMTQSPSSLSASVGDRVTITCRASQDISNYLNWYQQKPGKAPKLLIYYTSKLHSGVPSRFSGSGSGTDFTLTISSLQPEDIATYYCQQGDALPWTFGGGTKVEIK
notes: Humanized Clone D; constant regions from the vector, 293F cells; also called humanized Clone D, Dh VH1 + Dh VL2
Kd: 12.4 nM

B17: DhVH3/DhVL1 (antibody, V domains shown)
VH: QVQLVQSGAEVKKPGASVKVSCKASGYSFTGYTMNWVRQAPGQGLEWMGLIIPYNGGISYNQKFKDRVTMTVDTSISTAYMELSRLRSDDTAVYYCASLITTAPRDSMDYWGQGTLVTVSS
VL: DIQMTQSTSSLSASVGDRVTITCRASQDISNYLNWYQQKPGGAPKLLIYYTSKLHSGVPSRFSGSGSGTDYTLTISSLQQEDIATYYCQQGDALPWTFGGGTKVEIK
notes: Humanized Clone D; constant regions from the vector, 293F cells; also called humanized Clone D, Dh VH3 + Dh VL1
Kd: 9.09 nM

B18: DhVH-CDR graft/ DhVL-CDR graft (antibody, V domains shown)
VH: QVQLVQSGAEVKKPGASVKVSCKASGYSFTGYTMNWVRQAPGQGLEWMGLIIPYNGGISYNQKFKDRVTMTRDTSISTVYMELSRLRSDDTAVYYCASLITTAPRDSMDYWGQGTLVTVSS
VL: DIQMTQSPSSLSASVGDRVTITCRASQDISNYLNWYQQKPGKAPKLLIYYTSKLHSGVPSRFSGSGSGTDFTFTISSLQPEDIATYYCQQGDALPWTFGGGTKVEIK
notes: also called CDR-grafted humanized Clone D
Kd: 10.3 nM

B19: DhVH2/DhVL1 (antibody, V domains shown)
VH: QVQLVQSGAEVKKPGASVKVSCKASGYSFTGYTMNWVKQAHGQGLEWMGLIIPYNGGISYNQKFKDRVTMTVDTSISTAYMELSRLRSDDTAVYYCASLITTAPRDSMDYWGQGTLVTVSS
VL: DIQMTQSTSSLSASVGDRVTITCRASQDISNYLNWYQQKPGGAPKLLIYYTSKLHSGVPSRFSGSGSGTDYTLTISSLQQEDIATYYCQQGDALPWTFGGGTKVEIK
notes: Humanized Clone D; constant regions from the vector, 293F cells; also called humanized Clone D, Dh VH2 + Dh VL1
Kd: 1.27 nM

B20: DhVH1/DhVL1 (antibody, V domains shown)
VH: QVQLVQSGAEVKKPGASVKVSCKASGYSFTGYTMNWVKQSHGQGLEWIGLIIPYNGGISYNQKFKDRATLTVDTSSSTAYMELSRLRSDDTAVYYCASLITTAPRDSMDYWGQGTLVTVSS
VL: DIQMTQSTSSLSASVGDRVTITCRASQDISNYLNWYQQKPGGAPKLLIYYTSKLHSGVPSRFSGSGSGTDYTLTISSLQQEDIATYYCQQGDALPWTFGGGTKVEIK
notes: Humanized Clone D; constant regions (CH1-FC/CL) from the vector, 293F cells; also called humanized Clone D, Dh VH1 + Dh VL1
Kd: 11.1 nM

B21: Chimeric D (antibody, V domains shown)
VH: EVQLQQSGPELVKPGASMKISCKASGYSFTGYTMNWVKQSHGKNLEWIGLIIPYNGGISYNQKFKDKATLTVDKSSSTAYMELLSLTSEDSAVYYCASLITTAPRDSMDYWGQGTSVTVSS
VL: DIQMTQTTSSLSASLGDRVTISCRASQDISNYLNWYQQKPDGSVKLLIYYTSKLHSGVPSRFSGSGSGTDYSLTISNLEQEDIATYFCQQGDALPWTFGGGTKLEIK
notes: also called chimeric Clone D
Kd: 3.68 nM
